Experimental data taken from US20080044413A1 (published 2008).

Key:
[1] = biological target: T1, Human EphA2-Fc fusion protein (human, UniProt P29317 24-537); experiment: SPR (Biacore 3000), soluble IgG on immobilized EphA2-Fc
T1 construct: extracellular domain; Expressed in HEK 293 cells; Biotinylated in the capture ELISAs; also called soluble EphA2 Fc fusion protein; not shown: Fc portion of a human IgG1

cynomolgus EphA2 = biological target: T2, cynomolgus EphA2 (cynomolgus, UniProt Q1KL86 24-976); experiment: flow cytometry on cynomolgus EphA2 transfected CHO cells, antibody 10 µg/ml, AlexaFluor 488 anti-mouse or anti-human IgG (H+L)
T2 construct: whole, on cells; also called cynomolgus EphA2 expressed on transfected CHO cells
Protocol: Subconfluent monolayers of SW480 colon carcinoma or cynomolgus EphA2 transfected CHO cells were quickly trypsinized, washed, counted, plated into 96-well round bottom plates, and stained with 10 μg/ml of a negative control antibody (R347), the anti-human EphA2 murine antibody, EA2 (Coffman 2003), or humanized antibodies, 3F2 and 4H5. Cells were resuspended in AlexaFluor 488 anti-mouse or anti-human IgG H+L (Invitrogen) and then analyzed by flow cytometry using a FACSCalibur (Becton Dickinson).

[2] = biological target: T1, Human EphA2-Fc fusion protein; experiment: SPR (BIAcore 3000), KD against that of 4H5 scFv
Protocol: (§1) 2A4, 2E7 and 12E2 as well as parental EA2 scFv and humanized 4H5 scFv were induced for expression in E. coli in a 1 L culture volume. The supernatants containing soluble, secreted scFv fragments were spun to remove cellular debris then passed over an anti-FLAG column (Sigma) to purify and isolate the variant proteins. The purified affinity optimized variants were analyzed by surface plasmon resonance detection using a BIAcore 3000 instrument (Pharmacia Biosensor, Uppsala, Sweden). […] For affinity measurement results, see the table in section 6.6, infra.

[3] = biological target: T1, Human EphA2-Fc fusion protein; experiment: SPR (BIAcore 3000), purified monomeric scFv, human EphA2
Protocol: as §1

human EphA2 [4] = biological target: T3, human EphA2 (human, UniProt P29317 24-976); experiment: flow cytometry on A549 cells, antibody 10 µg/ml, PE anti-mouse Fc gamma; control: irrelevant antibody of the same isotype [A]
T3 construct: whole, on cells; also called EphA2 receptor
Protocol: FIGS. 10A-10B: Flow cytometric binding analysis of anti-EphA2 parental antibodies. EphA2 expressing A549 cells (human lung carcinoma cell line) (A), and MDA-MB-231 cells (human breast cancer) (B) were used. Cells (200,000) were incubated with 10 μg/ml of the respective antibody for 30 min on ice. The cells were subsequently washed twice in PBS. The binding of the primary antibody was detected via an phycoerythrin-conjugated murine Fc-gamma specific antibody (Dianova, order no. 115-116-071) diluted 1:100 in 50 μl PBS with 2% FCS. As negative control, an irrelevant antibody with the same isotype was used (thin line). Cells were analyzed by flow cytometry on a FACS-Calibur (Becton Dickinson, Heidelberg). […] The binding capabilities of the three different antibodies are shown in a histogram overlay (4th peak from left=B322 antibody; 3rd peak from left=EA2 antibody; 2nd peak from left=EA5 antibody; far left peak—control).
A flow cytometric analysis was performed to estimate the binding strength of the anti-EphA2 parental monoclonal antibodies […], EA2 and EA5 (FIG. 10). […] The binding of the primary antibody was detected via an phycoerythrin conjugated murine Fc-gamma specific antibody (Dianova, order no. 115-116-071) diluted 1:100 in […] PBS with 2% FCS. […] Cells were analyzed by flow cytometry on a FACS-Calibur (Becton Dickinson, Heidelberg).

human EphA2 [5] = biological target: T3, human EphA2; experiment: immunofluorescence microscopy of fixed monolayers of MCF-10A and MDA-MB-231 cells
Protocol: Monolayers of MCF-10A or MDA-MB-231 cells were cultured atop glass coverslips for at least 24 h at 37° C. before staining. Cell monolayers were fixed in 4% paraformaldehyde (2 min, 25° C.) before incubation with primary antibody (clone G5 (negative control), EA5, EA2, 3F2, or 4H5) for 30 min followed by subsequent staining with AlexaFluor 488-conjugated goat anti-mouse IgG or AlexaFluor 488-conjugated goat anti-human IgG (The Jackson Laboratory). Cells were fixed for analyses by immunofluorescence microscopy. […] The amino acid sequence of the VL and VH domains of the G5 antibody are depicted in FIG. 42.

T2 sequence (Q1KL86 24-976): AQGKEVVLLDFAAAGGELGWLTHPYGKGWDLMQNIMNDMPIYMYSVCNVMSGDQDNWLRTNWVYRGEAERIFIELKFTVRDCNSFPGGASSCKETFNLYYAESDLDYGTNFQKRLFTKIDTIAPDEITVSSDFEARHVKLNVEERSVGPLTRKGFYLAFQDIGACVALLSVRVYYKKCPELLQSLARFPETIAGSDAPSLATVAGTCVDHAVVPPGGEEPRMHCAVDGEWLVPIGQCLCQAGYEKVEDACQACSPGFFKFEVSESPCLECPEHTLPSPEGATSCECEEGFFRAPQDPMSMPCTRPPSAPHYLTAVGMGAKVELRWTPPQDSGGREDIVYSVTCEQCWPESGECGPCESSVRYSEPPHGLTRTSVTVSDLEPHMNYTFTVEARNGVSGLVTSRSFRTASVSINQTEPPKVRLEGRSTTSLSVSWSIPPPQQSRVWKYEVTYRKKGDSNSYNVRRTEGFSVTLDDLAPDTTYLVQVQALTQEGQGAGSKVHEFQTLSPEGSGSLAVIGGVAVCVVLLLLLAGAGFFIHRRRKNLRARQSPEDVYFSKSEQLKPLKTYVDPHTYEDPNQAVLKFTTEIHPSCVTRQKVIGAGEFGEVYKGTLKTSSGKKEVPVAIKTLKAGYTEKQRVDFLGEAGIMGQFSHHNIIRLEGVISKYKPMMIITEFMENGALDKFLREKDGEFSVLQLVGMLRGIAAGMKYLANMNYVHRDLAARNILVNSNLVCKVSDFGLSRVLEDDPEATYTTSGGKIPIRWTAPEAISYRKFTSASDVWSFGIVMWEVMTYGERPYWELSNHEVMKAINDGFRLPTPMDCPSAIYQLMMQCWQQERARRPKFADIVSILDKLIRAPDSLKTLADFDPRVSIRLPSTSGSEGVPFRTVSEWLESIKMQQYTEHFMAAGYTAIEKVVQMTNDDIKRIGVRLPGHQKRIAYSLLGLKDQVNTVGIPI

B1: Chimaeric B 233 (antibody, V domains shown)
VH: EVKLVESGGGLVQPGGSLSLSCAASGFTFTDYSMNWVRQPPGKALEWLGFIRNKANDYTTEYSASVKGRFTISRDNSQSILYLQMNALRAEDSATYYCVRYPRYHAMDSWGQGTSVTVSS
VL: DIVLTQSPATLSVTPGDSVNLSCRASQSISNNLHWYQQKSHESPRLLIKYVFQSISGIPSRFSGSGSGTDFTLSINSVETEDFGMYFCQQSNSWPLTFGAGTKLELK
notes: Soluble IgG with the B233 variable regions; also called chimaeric mAb B233; chimeric B233
In the case of B1, the Kd [1] is reported as 0.3 nM, the koff [1] is reported as 8e-05 s⁻¹ and the kon [1] is reported as 240000 M⁻¹ s⁻¹.

B2: Affinity optimized 3F2 (antibody, human IgG1, V domains shown)
VH: EVQLVESGGGVVRPGGSLRLSCAASGFTVSDYSMNWVRQAPGKGLEWIGFIRNKANAYTTEYSASVKGRFTISRDDSKNTLYLQMNSLKTEDTAVYYCTTYPRYHAMDSWGQGTMVTVSS
VL: AIQLTQSPSSLSASVGDRVTITCRASQSISNNLHWYLQKPGQSPQLLIYYGFQSISGVPSRFSGSGSGTDFTLTISSLQPEDFATYYCQQANSWPLTFGGGTKLEIK
notes: human IgG1 with human kappa chain
Binder B2 has a Kd [1] of 0.671 nM, a koff [1] of 0.000127 s⁻¹ and a kon [1] of 189000 M⁻¹ s⁻¹. B2: binds (cynomolgus EphA2).

B3: parental anti-EphA2 scFv EA2 (scFv)
scFv: DVKLVESGGGLVKPGGSLKLSCAASGFTFSSYTMSWVRQTPEKRLEWVATISSGGTYTYYPDSVKGRFTISRDNAKNTLYLQMSSLKSEDTAMYYCTREAIFTYWGQGTLVTVSAGGGGSGGGGSGGGGSDIKMTQSPSSMYASLGERVTITCKASQDINNYLSWFQQKPGKSPKTLIYRANRLVDGVPSRFSGSGSGQDYSLTISSLEYEDMGIYYCLKYDEFPYTFGGGTKLEIK
notes: The murine EA2 variable regions were cloned in the same manner as the 4H5 scFv (VH, linker, VL, FLAG, His); also called EA2 scFv; not shown: C-terminal FLAG tag and His tag
B3 was tested, and the “Fold Difference (vs 4H5)” value [2] was -4.8 fold, the Kd [3] was 870 nM and the koff [3] was 0.03 s⁻¹. For the same binder, the kon [3] was 34000 M⁻¹ s⁻¹.

B4: anti-EphA2 antibody EA2 (antibody, V domains shown)
VH: DVKLVESGGGLVKPGGSLKLSCAASGFTFSSYTMSWVRQTPEKRLEWVATISSGGTYTYYPDSVKGRFTISRDNAKNTLYLQMSSLKSEDTAMYYCTREAIFTYWGQGTLVTVSA
VL: DIKMTQSPSSMYASLGERVTITCKASQDINNYLSWFQQKPGKSPKTLIYRANRLVDGVPSRFSGSGSGQDYSLTISSLEYEDMGIYYCLKYDEFPYTFGGGTKLEIK
notes: Murine monoclonal antibody; Hybridoma ATCC PTA-4380; also called mAb EA2
B4: binds (cynomolgus EphA2); binds (human EphA2 [4]).

B5: VH VL 2A4 scFv (scFv)
scFv: QVQLLESGGGLVQPGGSLRLSCAASGFTFSSYTMSWVRQAPGQALEWMGTISSRGTYTYYPDSVKGRFTISRDNAKNSLYLQMNSLRAEDTAVYYCAREAIFTHWGRGTLVTVSSGGGGSGGGGSGGGGSDIQLTQSPSSLSASVGDRVTITCKASQDINNYHSWYQQKPGQAPRLLIYRANRLVDGVPDRFSGSGYGTDFTLTINNIESEDAAYYFCLKYNVFPYTFGQGTKVEIK
notes: FLAG and His tags as for 4H5 scFv
In the case of B5, the “Fold Difference (vs 4H5)” value [2] is reported as 32 fold, the Kd [3] is reported as 5.7 nM and the koff [3] is reported as 0.0037 s⁻¹. For the same binder, the kon [3] was 650000 M⁻¹ s⁻¹.

B6: 4H5 VH-VL scFv humanized clone (scFv)
scFv: QVQLLESGGGLVQPGGSLRLSCAASGFTFSSYTMSWVRQAPGQALEWMGTISSGGTYTYYPDSVKGRFTISRDNAKNSLYLQMNSLRAEDTAVYYCAREAIFTYWGRGTLVTVSSGGGGSGGGGSGGGGSDIQLTQSPSSLSASVGDRVTITCKASQDINNYLSWYQQKPGQAPRLLIYRANRLVDGVPDRFSGSGYGTDFTLTINNIESEDAAYYFCLKYDVFPYTFGQGTKVEIK
notes: Expressed with a C-terminal FLAG tag and His tag; also called 4H5 scFv; scFv 4H5
For B6, the “Fold Difference (vs 4H5)” value [2] was 1 fold, the Kd [3] was 180 nM and the koff [3] was 0.018 s⁻¹. For the same binder, the kon [3] was 100000 M⁻¹ s⁻¹.

B7: VH VL 2E7 scFv (scFv)
scFv: QVQLLESGGGLVQPGGSLRLSCAASGFTFSSYTMSWVRQAPGQALEWMGTISSRGTYTYYPDSVKGRFTISRDNAKNSLYLQMNSLRAEDTAVYYCAREAIFTHWGRGTLVTVSSGGGGSGGGGSGGGGSDIQLTQSPSSLSASVGDRVTITCKASQDINNYGSWYQQKPGQAPRLLIYRANRLVDGVPDRFSGSGYGTDFTLTINNIESEDAAYYFCLKYNRFPYTFGQGTKVEIK
notes: as for B5
For B7, the “Fold Difference (vs 4H5)” value [2] was 25 fold, the Kd [3] was 7.3 nM and the koff [3] was 0.0041 s⁻¹. It also gave a kon [3] of 560000 M⁻¹ s⁻¹.

B8: VH VL 12E2 scFv (scFv)
scFv: QVQLLESGGGLVQPGGSLRLSCAASGFTFSSYTMSWVRQAPGQALEWMGTISSRGTYTYYPDSVKGRFTISRDNAKNSLYLQMNSLRAEDTAVYYCAREAIFTYWGRGTLVTVSSGGGGSGGGGSGGGGSDIQLTQSPSSLSASVGDRVTITCKASQDINNYLSWYQQKPGQAPRLLIYRANRLFDGVPDRFSGSGYGTDFTLTINNIESEDAAYYFCLKYDRFPYTFGQGTKVEIK
notes: as for B5
B8 was tested, and the “Fold Difference (vs 4H5)” value [2] was 23 fold, the Kd [3] was 7.8 nM and the koff [3] was 0.0041 s⁻¹. It also gave a kon [3] of 520000 M⁻¹ s⁻¹.

B9: anti-EphA2 antibody EA5 (antibody, V domains shown)
VH: EVQLQQSGPELVKTGASVKISCKASGYSFTGYYMHWVKQSHGKSLEWIGYISCYNGVTSYNQKFKGKATFTVDTSSSTAYMQFNSLTSEDSAVYYCARSHAMDYWGQGTSVTVSS
VL: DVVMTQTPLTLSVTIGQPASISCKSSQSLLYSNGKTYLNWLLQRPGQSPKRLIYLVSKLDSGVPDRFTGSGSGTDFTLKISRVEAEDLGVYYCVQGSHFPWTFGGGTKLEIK
notes: Murine monoclonal antibody; Hybridoma ATCC PTA-4381; also called mAb EA5
B9: binds (human EphA2 [4]).

B10: G5 (antibody, V domains shown)
VH: QMQLVQSGPEVKKPGTSVKVSCKASGFTFTDYSMNWVRQARGQRLEWIGFIRNKANDYTTEYSASVKGRVTITRDMSTSTAYMELSSLRSEDTAVYYCARYPRYHAMDSWGQGTSVTVSS
VL: DIQMTQSPSSLSASVGDRVTITCRASQSISNNLHWYQQKPGKAPKLLIKYVFQSISGVPSRFSGSGSGTDFTFTISSLQPEDFATYYCQQSNSWPLTFGGGTKVEIK
notes: also called clone G5; anti-EphA2 antibody G5
B10: binds (human EphA2 [5]).
